From PMC5611513, “Structure-Based Prototype Peptides Targeting the Pseudomonas aeruginosa Type VI Secretion System Effector as a Novel Antibacterial Strategy” (Frontiers in Cellular and Infection Microbiology, 2017)

B1: TplE: H2-T6SS-dependent antibacterial lipolytic toxin (lipase effector) of P. aeruginosa (protein)
chain: MSSEPLEPNQDVIIPRSRDSLGRPVYKAQLTRTDNQSEKVALIRQTAPLPVIFIPGIMGTNLRNKADKSEVWRPPNGLWPMDDLFASIGALWTWAWRGPKARQELLKAEQVEVDDQGTIDVGQSGLSEEAARLRGWGKVMRSAYNPVMGLMERRLDNIVSRRELQAWWNDEALSPPGDQGEEQGKVGPIDEEELLRASRYQFDVWCAGYNWLQSNRQSALDVRDYIENTVLPFYQKECGLDPEQMRRMKVILVTHSMGGLVARALTQLHGYERVLGVVHGVQPATGSSTIYHHMRCGYEGIAQVVLGRNAGEVTAIVANSAGALELAPSAEYREGRPWLFLCDAQGQVLKDIDGKPRAYPQNQDPYEEIYKNTTWYGLVPEQNSQYLDMSDKKEGLRVGPRDNFEDLIDSIANFHGELSAAGYHSETYAHYGADDSRHSWRDLIWKGDPTPLETPGATLNDDENGTYNSWFRRGLPTIVQGPLETGNPLDASGSGGDETVPTDSGQAPALAGVKASFRHGSKGKGQANTKRGYEHQESYNDARAQWAALYGVIKITQLADWHPNDKGGT
B2: TplEi: cognate periplasmic immunity protein that neutralizes TplE (protein)
chain: CTSFSSSRSSSMDKTGWITHCFGRFLIDLPPDAVINAGYYLWGDRIEYLDDKPTELAARVDRLEQEWRTQRHKSKGNMFLRKIDFGNESVGLLSWSSEVASKTYLLDTYVTSKPTWHVYRWKGKVSVDREQHAVEISRALARNLRSRAPKEIPSEPGFCIDHAYIAGDSFQVERFGVGVTFPEHPGARFEFRSSTGAELNSLLERVDGFVQNMLSTFAGMETLRKGKHPVGSLPGEEYLVAGSDKGQRGYTFMWEVQGKEESLTEPNLTAGLAVLERSNENGKPPPPAFKSDKEALELWDTIVDSIRVRPTSSSPRGGNAGPSPAPKPATPGGQTLGDHYVYEEFLSSLKPKDSWLDDL

Test system: E. coli BL21 (DE3)
Assay: Cell-toxicity assay, spot growth on LB agar
Type: cell-based, Escherichia coli
Conditions: E. coli BL21 (DE3), 0.045 mM IPTG, 24 h
Protocol: Cell-toxicity assay was carried as previously described with minor modification (Jiang et al., [2016]). […] A 2 μl bacterial dilution was spotted onto LB agar plate containing 0.045 mM IPTG. Images were taken after 24 h growth.
(A) Diagrams of TplE, TplE-TplEi and “L” peptide expressing constructs. Expression of vector sequence and “L” peptide mutant with the PelB signal peptide was used as a control. […] A 10-fold serial dilution of overnight culture was spotted on LB agar plates from left to right. The experiments were performed at least 3 times.

Molecule | growth of E. coli on periplasmic expression of TplE (periplasmic-targeted TplE alone) | effect of co-expression of TplEi on TplE-dependent growth inhibition (TplE-TplEi co-expressed)
B1 | significant inhibition of growth | –
B2 | – | repressed the TplE-dependent growth inhibition
